IntAct's records for PubMed 31515488

B1: Notch homolog 2 N-terminal-like protein A (Homo sapiens), Q7Z3S9 (parent)
chain: MCVTYHNGTGYCKCPEGFLGEYCQHRDPCEKNRCQNGGTCVAQAMLGKATCRCASGFTGEDCQYSTSHPCFVSRPCLNGGTCHMLSRDTYECTCQVGFTGKECQWTDACLSHPCANGSTCTTVANQFSCKCLTGFTGQKCETDVNECDIPGHCQHGGTCLNLPGSYQCQCLQGFTGQYCDSLYVPCAPSPCVNGGTCRQTGDFTFECNCLPETVRRGTELWERDREVWNGKEHDEN
partner: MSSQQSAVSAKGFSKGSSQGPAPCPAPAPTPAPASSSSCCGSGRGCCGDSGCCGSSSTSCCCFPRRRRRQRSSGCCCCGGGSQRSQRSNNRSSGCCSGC
B2: Serine/threonine-protein kinase PAK 5 (Homo sapiens), Q9P286 (parent)
chain: MFGKKKKKIEISGPSNFEHRVHTGFDPQEQKFTGLPQQWHSLLADTANRPKPMVDPSCITPIQLAPMKTIVRGNKPCKETSINGLLEDFDNISVTRSNSLRKESPPTPDQGASSHGPGHAEENGFITFSQYSSESDTTADYTTEKYREKSLYGDDLDPYYRGSHAAKQNGHVMKMKHGEAYYSEVKPLKSDFARFSADYHSHLDSLSKPSEYSDLKWEYQRASSSSPLDYSFQFTPSRTAGTSGCSKESLAYSESEWGPSLDDYDRRPKSSYLNQTSPQPTMRQRSRSGSGLQEPMMPFGASAFKTHPQGHSYNSYTYPRLSEPTMCIPKVDYDRAQMVLSPPLSGSDTYPRGPAKLPQSQSKSGYSSSSHQYPSGYHKATLYHHPSLQSSSQYISTASYLSSLSLSSSTYPPPSWGSSSDQQPSRVSHEQFRAALQLVVSPGDPREYLANFIKIGEGSTGIVCIATEKHTGKQVAVKKMDLRKQQRRELLFNEVVIMRDYHHDNVVDMYSSYLVGDELWVVMEFLEGGALTDIVTHTRMNEEQIATVCLSVLRALSYLHNQGVIHRDIKSDSILLTSDGRIKLSDFGFCAQVSKEVPKRKSLVGTPYWMAPEVISRLPYGTEVDIWSLGIMVIEMIDGEPPYFNEPPLQAMRRIRDSLPPRVKDLHKVSSVLRGFLDLMLVREPSQRATAQELLGHPFLKLAGPPSCIVPLMRQYRHH
partner: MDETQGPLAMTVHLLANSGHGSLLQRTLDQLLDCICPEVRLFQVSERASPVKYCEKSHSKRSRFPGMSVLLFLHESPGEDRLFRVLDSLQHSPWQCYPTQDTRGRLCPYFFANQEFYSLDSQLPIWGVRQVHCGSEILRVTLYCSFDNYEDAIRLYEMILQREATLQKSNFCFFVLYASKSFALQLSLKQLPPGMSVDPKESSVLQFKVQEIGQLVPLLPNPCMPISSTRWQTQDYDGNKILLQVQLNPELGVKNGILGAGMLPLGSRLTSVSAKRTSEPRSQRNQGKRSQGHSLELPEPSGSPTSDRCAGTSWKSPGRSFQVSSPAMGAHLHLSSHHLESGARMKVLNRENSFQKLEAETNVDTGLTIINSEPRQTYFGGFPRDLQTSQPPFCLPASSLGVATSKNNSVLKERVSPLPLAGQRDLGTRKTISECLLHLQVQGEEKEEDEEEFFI
B3: Ornithine decarboxylase antizyme 3 (Homo sapiens), Q9UMX2 (parent)
chain: MPCKRCRPSVYSLSYIKRGKTRNYLYPIWSPYAYYLYCYKYRITLREKMLPRCYKSITYKEEEDLTLQPRSCLQCSESLVGLQEGKSTEQGNHDQLKELYSAGNLTVLATDPLLHQDPVQLDFHFRLTSQTSAHWHGLLCDRRLFLDIPYQALDQGNRESLTATLEYVEEKTNVDSVFVNFQNDRNDRGALLRAFSYMGFEVVRPDHPALPPLDNVIFMVYPLERDVGHLPSEPP
B4: Caspase recruitment domain-containing protein 9 (Homo sapiens), Q9H257 (parent)
chain: MSDYENDDECWSVLEGFRVTLTSVIDPSRITPYLRQCKVLNPDDEEQVLSDPNLVIRKRKVGVLLDILQRTGHKGYVAFLESLELYYPQLYKKVTGKEPARVFSMIIDASGESGLTQLLMTEVMKLQKKVQDLTALLSSKDDFIKELRVKDSLLRKHQERVQRLKEECEAGSRELKRCKEENYDLAMRLAHQSEEKGAALMRNRDLQLEIDQLKHSLMKAEDDCKVERKHTLKLRHAMEQRPSQELLWELQQEKALLQARVQELEASVQEGKLDRSSPYIQVLEEDWRQALRDHQEQANTIFSLRKDLRQGEARRLRCMEEKEMFELQCLALRKDSKMYKDRIEAILLQMEEVAIERDQAIATREELHAQHARGLQEKDALRKQVRELGEKADELQLQVFQCEAQLLAVEGRLRRQQLETLVLSSDLEDGSPRRSQELSLPQDLEDTQLSDKGCLAGGGSPKQPFAALHQEQVLRNPHDAGLSSGEPPEKERRRLKESFENYRRKRALRKMQKGWRQGEEDRENTTGSDNTDTEGS
partner: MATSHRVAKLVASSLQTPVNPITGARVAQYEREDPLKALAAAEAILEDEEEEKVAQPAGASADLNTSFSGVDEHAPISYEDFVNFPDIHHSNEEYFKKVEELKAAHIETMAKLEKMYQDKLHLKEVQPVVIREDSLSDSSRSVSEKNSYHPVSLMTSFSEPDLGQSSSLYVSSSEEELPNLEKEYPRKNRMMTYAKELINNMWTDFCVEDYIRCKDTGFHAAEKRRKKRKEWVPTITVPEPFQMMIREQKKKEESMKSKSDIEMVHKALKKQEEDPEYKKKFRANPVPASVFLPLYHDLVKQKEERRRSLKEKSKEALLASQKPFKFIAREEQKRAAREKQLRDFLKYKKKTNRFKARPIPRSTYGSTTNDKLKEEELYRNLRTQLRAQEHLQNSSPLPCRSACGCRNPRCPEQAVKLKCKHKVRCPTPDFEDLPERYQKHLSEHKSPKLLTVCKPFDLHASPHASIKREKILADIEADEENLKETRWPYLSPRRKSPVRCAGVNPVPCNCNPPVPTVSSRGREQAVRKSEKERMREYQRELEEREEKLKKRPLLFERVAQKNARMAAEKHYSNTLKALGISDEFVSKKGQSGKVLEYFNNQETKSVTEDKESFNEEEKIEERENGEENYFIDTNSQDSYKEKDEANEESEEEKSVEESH
B5: Zinc finger and BTB domain-containing protein 43 (Homo sapiens), O43298 (parent)
chain: MEPGTNSFRVEFPDFSSTILQKLNQQRQQGQLCDVSIVVQGHIFRAHKAVLAASSPYFCDQVLLKNSRRIVLPDVMNPRVFENILLSSYTGRLVMPAPEIVSYLTAASFLQMWHVVDKCTEVLEGNPTVLCQKLNHGSDHQSPSSSSYNGLVESFELGSGGHTDFPKAQELRDGENEEESTKDELSSQLTEHEYLPSNSSTEHDRLSTEMASQDGEEGASDSAEFHYTRPMYSKPSIMAHKRWIHVKPERLEQACEGMDVHATYDEHQVTESINTVQTEHTVQPSGVEEDFHIGEKKVEAEFDEQADESNYDEQVDFYGSSMEEFSGERSDGNLIGHRQEAALAAGYSENIEMVTGIKEEASHLGFSATDKLYPCQCGKSFTHKSQRDRHMSMHLGLRPYGCGVCGKKFKMKHHLVGHMKIHTGIKPYECNICAKRFMWRDSFHRHVTSCTKSYEAAKAEQNTTEAN
partner: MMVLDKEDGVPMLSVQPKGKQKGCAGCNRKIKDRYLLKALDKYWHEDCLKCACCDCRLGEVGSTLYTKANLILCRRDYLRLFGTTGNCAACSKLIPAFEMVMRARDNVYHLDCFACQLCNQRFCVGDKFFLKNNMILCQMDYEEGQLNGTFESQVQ
B6: Ubl carboxyl-terminal hydrolase 18 (Homo sapiens), Q9UMW8 (parent)
chain: MSKAFGLLRQICQSILAESSQSPADLEEKKEEDSNMKREQPRERPRAWDYPHGLVGLHNIGQTCCLNSLIQVFVMNVDFTRILKRITVPRGADEQRRSVPFQMLLLLEKMQDSRQKAVRPLELAYCLQKCNVPLFVQHDAAQLYLKLWNLIKDQITDVHLVERLQALYTIRVKDSLICVDCAMESSRNSSMLTLPLSLFDVDSKPLKTLEDALHCFFQPRELSSKSKCFCENCGKKTRGKQVLKLTHLPQTLTIHLMRFSIRNSQTRKICHSLYFPQSLDFSQILPMKRESCDAEEQSGGQYELFAVIAHVGMADSGHYCVYIRNAVDGKWFCFNDSNICLVSWEDIQCTYGNPNYHWQETAYLLVYMKMEC
B7: Protein DBF4 homolog A (Homo sapiens), Q9UBU7 (parent)
chain: MNSGAMRIHSKGHFQGGIQVKNEKNRPSLKSLKTDNRPEKSKCKPLWGKVFYLDLPSVTISEKLQKDIKDLGGRVEEFLSKDISYLISNKKEAKFAQTLGRISPVPSPESAYTAETTSPHPSHDGSSFKSPDTVCLSRGKLLVEKAIKDHDFIPSNSILSNALSWGVKILHIDDIRYYIEQKKKELYLLKKSSTSVRDGGKRVGSGAQKTRTGRLKKPFVKVEDMSQLYRPFYLQLTNMPFINYSIQKPCSPFDVDKPSSMQKQTQVKLRIQTDGDKYGGTSIQLQLKEKKKKGYCECCLQKYEDLETHLLSEQHRNFAQSNQYQVVDDIVSKLVFDFVEYEKDTPKKKRIKYSVGSLSPVSASVLKKTEQKEKVELQHISQKDCQEDDTTVKEQNFLYKETQETEKKLLFISEPIPHPSNELRGLNEKMSNKCSMLSTAEDDIRQNFTQLPLHKNKQECILDISEHTLSENDLEELRVDHYKCNIQASVHVSDFSTDNSGSQPKQKSDTVLFPAKDLKEKDLHSIFTHDSGLITINSSQEHLTVQAKAPFHTPPEEPNECDFKNMDSLPSGKIHRKVKIILGRNRKENLEPNAEFDKRTEFITQEENRICSSPVQSLLDLFQTSEEKSEFLGFTSYTEKSGICNVLDIWEEENSDNLLTAFFSSPSTSTFTGF
B8: STAM-binding protein (Homo sapiens), O95630 (parent)
chain: MSDHGDVSLPPEDRVRALSQLGSAVEVNEDIPPRRYFRSGVEIIRMASIYSEEGNIEHAFILYNKYITLFIEKLPKHRDYKSAVIPEKKDTVKKLKEIAFPKAEELKAELLKRYTKEYTEYNEEKKKEAEELARNMAIQQELEKEKQRVAQQKQQQLEQEQFHAFEEMIRNQELEKERLKIVQEFGKVDPGLGGPLVPDLEKPSLDVFPTLTVSSIQPSDCHTTVRPAKPPVVDRSLKPGALSNSESIPTIDGLRHVVVPGRLCPQFLQLASANTARGVETCGILCGKLMRNEFTITHVLIPKQSAGSDYCNTENEEELFLIQDQQGLITLGWIHTHPTQTAFLSSVDLHTHCSYQMMLPESVAIVCSPKFQETGFFKLTDHGLEEISSCRQKGFHPHSKDPPLFCSCSHVTVVDRAVTITDLR
partner: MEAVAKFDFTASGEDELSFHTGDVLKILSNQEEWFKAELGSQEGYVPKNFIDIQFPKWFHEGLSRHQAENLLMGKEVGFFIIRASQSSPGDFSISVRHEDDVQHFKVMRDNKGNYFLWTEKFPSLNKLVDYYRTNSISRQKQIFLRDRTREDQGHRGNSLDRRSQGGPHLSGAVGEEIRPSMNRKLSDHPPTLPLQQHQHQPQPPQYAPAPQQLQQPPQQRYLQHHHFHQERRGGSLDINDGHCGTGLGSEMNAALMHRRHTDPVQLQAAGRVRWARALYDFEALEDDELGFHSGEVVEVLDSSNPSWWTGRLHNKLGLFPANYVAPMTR

Variants of: B1
Details: with crct1_human CRCT1, Q9UGL9

| effect of a mutation on the interaction | Variant |
| --- | --- |
| with no effect | A115T |

Variants of: B2
Details: with FAM124B

| effect of a mutation on the interaction | Variant |
| --- | --- |
| with no effect | R335P |

Variants of: B3
Details: with azin1_human AZIN1, O14977
azin1_human AZIN1, O14977, sequence (O14977 whole entry): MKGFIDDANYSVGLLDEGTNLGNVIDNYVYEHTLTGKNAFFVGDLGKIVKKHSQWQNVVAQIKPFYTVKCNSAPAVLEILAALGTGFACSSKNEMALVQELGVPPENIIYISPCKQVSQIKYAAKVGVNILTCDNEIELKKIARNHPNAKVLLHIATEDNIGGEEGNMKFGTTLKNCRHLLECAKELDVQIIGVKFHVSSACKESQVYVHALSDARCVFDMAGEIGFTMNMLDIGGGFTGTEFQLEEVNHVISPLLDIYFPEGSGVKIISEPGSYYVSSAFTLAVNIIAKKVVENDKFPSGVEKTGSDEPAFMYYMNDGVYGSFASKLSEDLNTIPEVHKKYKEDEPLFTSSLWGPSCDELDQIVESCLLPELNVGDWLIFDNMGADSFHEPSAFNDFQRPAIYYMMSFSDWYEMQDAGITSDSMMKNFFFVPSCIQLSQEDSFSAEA

| effect of a mutation on the interaction | Variant |
| --- | --- |
| with no effect | V174A |
| with no effect | R193Q |

Variants of: B4
Details: with FAM161A

| effect of a mutation on the interaction | Variant |
| --- | --- |
| with no effect | V385L |

Variants of: B5
Details: with rbtn1_human LMO1, P25800

| effect of a mutation on the interaction | Variant |
| --- | --- |
| disrupting interaction strength | L151V |

Variants of: B6
Details: with isg15_human ISG15, P05161
isg15_human ISG15, P05161, sequence (P05161 whole entry): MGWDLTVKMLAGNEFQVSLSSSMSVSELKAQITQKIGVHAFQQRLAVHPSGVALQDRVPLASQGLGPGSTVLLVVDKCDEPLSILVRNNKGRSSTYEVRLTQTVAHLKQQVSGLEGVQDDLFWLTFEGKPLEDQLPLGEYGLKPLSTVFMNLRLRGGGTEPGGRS

| effect of a mutation on the interaction | Variant |
| --- | --- |
| with no effect | T169M |

Variants of: B7
Details: with cdc7_human CDC7, O00311

| effect of a mutation on the interaction | Variant |
| --- | --- |
| with no effect | L306I |
| with no effect | K579E |
| with no effect | I526V |

Variants of: B8
Details: with grap2_human GRAP2, O75791

| effect of a mutation on the interaction | Variant |
| --- | --- |
| with no effect | R255H |
